In this assay the target is Full-length mouse melanocyte-type myosin-5a (Myo5a-FL) (mouse) (UniProt Q99104).
Sequence of Full-length mouse melanocyte-type myosin-5a (Myo5a-FL) (mouse) (Q99104 whole entry): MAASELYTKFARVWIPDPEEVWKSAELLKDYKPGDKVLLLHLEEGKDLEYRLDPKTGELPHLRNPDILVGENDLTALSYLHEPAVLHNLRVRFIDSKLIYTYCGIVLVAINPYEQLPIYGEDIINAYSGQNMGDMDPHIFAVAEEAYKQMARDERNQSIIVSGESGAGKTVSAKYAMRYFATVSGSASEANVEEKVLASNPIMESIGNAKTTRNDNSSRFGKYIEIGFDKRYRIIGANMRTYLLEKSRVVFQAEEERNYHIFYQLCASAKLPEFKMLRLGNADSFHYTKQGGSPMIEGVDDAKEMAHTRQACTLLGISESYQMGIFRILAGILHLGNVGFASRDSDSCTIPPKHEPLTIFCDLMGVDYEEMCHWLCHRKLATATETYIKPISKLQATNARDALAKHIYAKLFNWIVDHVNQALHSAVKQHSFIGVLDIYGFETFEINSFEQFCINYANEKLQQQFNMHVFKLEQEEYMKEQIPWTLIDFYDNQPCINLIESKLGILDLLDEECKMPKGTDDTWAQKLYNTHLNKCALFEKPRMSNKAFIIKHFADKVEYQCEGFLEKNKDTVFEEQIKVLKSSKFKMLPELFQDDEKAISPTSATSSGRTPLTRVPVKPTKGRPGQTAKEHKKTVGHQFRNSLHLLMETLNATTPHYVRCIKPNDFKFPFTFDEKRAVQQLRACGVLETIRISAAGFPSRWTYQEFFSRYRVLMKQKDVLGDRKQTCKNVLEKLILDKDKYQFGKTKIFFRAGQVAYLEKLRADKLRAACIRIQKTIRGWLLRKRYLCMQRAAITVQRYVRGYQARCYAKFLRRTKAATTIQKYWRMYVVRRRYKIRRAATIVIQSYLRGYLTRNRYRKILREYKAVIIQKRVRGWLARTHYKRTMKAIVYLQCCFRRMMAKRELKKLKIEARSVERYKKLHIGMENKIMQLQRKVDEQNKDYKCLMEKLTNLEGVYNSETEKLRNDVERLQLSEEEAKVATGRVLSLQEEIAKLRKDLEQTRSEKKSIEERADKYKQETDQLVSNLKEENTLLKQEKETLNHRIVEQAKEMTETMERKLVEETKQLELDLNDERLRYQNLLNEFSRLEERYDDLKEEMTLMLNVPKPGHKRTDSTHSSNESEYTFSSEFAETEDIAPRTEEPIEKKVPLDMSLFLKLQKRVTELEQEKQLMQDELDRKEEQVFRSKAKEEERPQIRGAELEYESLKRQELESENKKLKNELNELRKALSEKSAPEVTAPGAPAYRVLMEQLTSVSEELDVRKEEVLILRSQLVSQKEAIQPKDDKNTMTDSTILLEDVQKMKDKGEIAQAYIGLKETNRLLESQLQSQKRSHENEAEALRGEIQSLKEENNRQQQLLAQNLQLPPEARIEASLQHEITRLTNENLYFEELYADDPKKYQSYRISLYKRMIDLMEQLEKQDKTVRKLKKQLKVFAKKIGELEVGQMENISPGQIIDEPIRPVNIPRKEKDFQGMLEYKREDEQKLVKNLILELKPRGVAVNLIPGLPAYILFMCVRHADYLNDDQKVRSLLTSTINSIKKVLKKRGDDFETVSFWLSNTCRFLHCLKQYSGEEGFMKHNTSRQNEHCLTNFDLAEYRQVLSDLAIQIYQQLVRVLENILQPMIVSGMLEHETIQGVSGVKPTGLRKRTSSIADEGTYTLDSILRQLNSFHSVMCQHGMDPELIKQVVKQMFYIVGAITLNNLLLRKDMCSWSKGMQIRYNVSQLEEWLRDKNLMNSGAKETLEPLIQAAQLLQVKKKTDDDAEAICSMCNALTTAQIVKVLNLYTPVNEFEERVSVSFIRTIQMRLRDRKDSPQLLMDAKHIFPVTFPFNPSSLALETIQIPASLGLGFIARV

As for RDQPLNSKKKKRLLSFRDVDFEEDSDY [Mlph-GTBDP, 26-residue Myo5a-GTD binding peptide of melanophilin with a C-terminal tyrosine], the stimulation of the actin-activated ATPase activity of Myo5a-FL by Mlph-GTBDP (EGTA conditions, 40 uM actin), hyperbolic fit: apparent Kd came out at 19.8 µM.

For the origin of these results see article PMC4454200.
